Laboratory results as given in the supplement of paper PMC9112550, “Optimization of the antimicrobial peptide Bac7 by deep mutational scanning” (BMC Biology, 2022).

Each sequence was assayed on Escherichia coli TOP10 (assay: shrunken log2 fold change of peptide-encoding DNA abundance (4.5 h post-induction vs induction); higher = less antimicrobial activity (less host growth inhibition)). Settings: time post-induction: 4.5 h; library: site-saturation at positions 5, 18, 19, 20.
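Note: peptides expressed intracellularly from a pBAD plasmid library in pooled LB shake-flask culture, induced with 0.3% L-arabinose, DNA abundance read by NGS, three biological replicates, DESeq2 with apeglm shrinkage.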

Row | Sequence | shrunken log2 fold change
1 | RRIRVRPPRLPRPRPRPGAMPRP | 0.0686
2 | RRIRNRPPRLPRPRPRPRKQPRP | 0.215
3 | RRIRYRPPRLPRPRPRPWCDPRP | -0.733
4 | RRIRARPPRLPRPRPRPELSPRP | 0.0862
5 | RRIRIRPPRLPRPRPRPNFGPRP | -0.0272
6 | RRIRTRPPRLPRPRPRPEVTPRP | -0.00738
7 | RRIRNRPPRLPRPRPRPPMTPRP | 1.77
8 | RRIRCRPPRLPRPRPRPFSNPRP | -0.117
9 | RRIRSRPPRLPRPRPRPNPRPRP | 0.0955
10 | RRIRMRPPRLPRPRPRPHVTPRP | -0.441
11 | RRIRIRPPRLPRPRPRPCGQPRP | -0.279
12 | RRIRHRPPRLPRPRPRPANCPRP | -0.246
13 | RRIRVRPPRLPRPRPRPGCNPRP | -0.216
14 | RRIRFRPPRLPRPRPRPVYVPRP | -0.93
15 | RRIRTRPPRLPRPRPRPQRHPRP | 0.19
16 | RRIRERPPRLPRPRPRPMLVPRP | -0.225
17 | RRIRGRPPRLPRPRPRPDEMPRP | -0.0376
18 | RRIRQRPPRLPRPRPRPRVLPRP | -0.0985
19 | RRIRCRPPRLPRPRPRPAVLPRP | -0.218
20 | RRIRDRPPRLPRPRPRPIIIPRP | -0.153
21 | RRIRNRPPRLPRPRPRPRFEPRP | 0.108
22 | RRIRPRPPRLPRPRPRPIDDPRP | 0.00554

Row | Sequence | shrunken log2 fold change
23 | RRIRRRPPRLPRPRPRPGSSPRP | 0.103
24 | RRIRPRPPRLPRPRPRPYNKPRP | -1.16
25 | RRIRLRPPRLPRPRPRPFTYPRP | -0.0906
26 | RRIRPRPPRLPRPRPRPQHKPRP | -0.449
27 | RRIRFRPPRLPRPRPRPNLIPRP | -0.347
28 | RRIRQRPPRLPRPRPRPYFSPRP | -0.451
29 | RRIRLRPPRLPRPRPRPYGYPRP | -0.01
30 | RRIRIRPPRLPRPRPRPSPNPRP | -0.735
31 | RRIRERPPRLPRPRPRPWRAPRP | 0.0397
32 | RRIRPRPPRLPRPRPRPGQAPRP | -0.0745
33 | RRIRERPPRLPRPRPRPKLRPRP | -0.0804
34 | RRIRSRPPRLPRPRPRPMLQPRP | -0.0416
35 | RRIRARPPRLPRPRPRPMQHPRP | 0.642
36 | RRIRLRPPRLPRPRPRPKEHPRP | 0.227
37 | RRIRERPPRLPRPRPRPEWPPRP | 0.102
38 | RRIRERPPRLPRPRPRPCEQPRP | -0.0101
39 | RRIRWRPPRLPRPRPRPLYRPRP | -0.552
40 | RRIRIRPPRLPRPRPRPGFPPRP | 0.186
41 | RRIRCRPPRLPRPRPRPLHHPRP | -0.469
42 | RRIRTRPPRLPRPRPRPVEYPRP | -0.122
43 | RRIRTRPPRLPRPRPRPEVIPRP | -0.0149
44 | RRIRPRPPRLPRPRPRPVRNPRP | 0.22

Row | Sequence | shrunken log2 fold change
45 | RRIRIRPPRLPRPRPRPNSTPRP | -0.722
46 | RRIRGRPPRLPRPRPRPGYHPRP | 0.0713
47 | RRIRHRPPRLPRPRPRPVHIPRP | -0.035
48 | RRIRTRPPRLPRPRPRPSATPRP | 0.273
49 | RRIRTRPPRLPRPRPRPKQHPRP | 0.119
50 | RRIRNRPPRLPRPRPRPKTFPRP | -0.399
51 | RRIRPRPPRLPRPRPRPVELPRP | -0.0271
52 | RRIRRRPPRLPRPRPRPLHYPRP | 0.239
53 | RRIRKRPPRLPRPRPRPPQSPRP | 0.863
54 | RRIRNRPPRLPRPRPRPWVGPRP | -0.065
55 | RRIRVRPPRLPRPRPRPKCTPRP | -0.0595
56 | RRIRTRPPRLPRPRPRPRDTPRP | -0.0276
57 | RRIRTRPPRLPRPRPRPCMYPRP | -0.183
58 | RRIRSRPPRLPRPRPRPRFAPRP | 0.24
59 | RRIRMRPPRLPRPRPRPILAPRP | 0.261
60 | RRIRNRPPRLPRPRPRPEKWPRP | -0.0101
61 | RRIRLRPPRLPRPRPRPCRMPRP | -0.0411
62 | RRIRERPPRLPRPRPRPKFIPRP | -0.144
63 | RRIRQRPPRLPRPRPRPQIGPRP | -0.0384
64 | RRIRHRPPRLPRPRPRPMVFPRP | 0.14
65 | RRIRHRPPRLPRPRPRPDEIPRP | -0.137
66 | RRIRKRPPRLPRPRPRPEFAPRP | 1.03

Row | Sequence | shrunken log2 fold change
67 | RRIRFRPPRLPRPRPRPENYPRP | 0.0219
68 | RRIRRRPPRLPRPRPRPLMNPRP | 0.312
69 | RRIRQRPPRLPRPRPRPTFNPRP | -0.201
70 | RRIRMRPPRLPRPRPRPEQKPRP | -0.0148
71 | RRIRDRPPRLPRPRPRPEDNPRP | 1.31
72 | RRIRVRPPRLPRPRPRPSPAPRP | 0.34
73 | RRIRERPPRLPRPRPRPHVSPRP | -0.0346
74 | RRIRIRPPRLPRPRPRPVVGPRP | 0.0233
75 | RRIRKRPPRLPRPRPRPECHPRP | -0.0136
76 | RRIRIRPPRLPRPRPRPDYCPRP | -0.163
77 | RRIRTRPPRLPRPRPRPFCFPRP | -0.134
78 | RRIRPRPPRLPRPRPRPQGIPRP | 0.102
79 | RRIRMRPPRLPRPRPRPMQDPRP | 1.14
80 | RRIRPRPPRLPRPRPRPTLMPRP | 0.227
81 | RRIRIRPPRLPRPRPRPDQVPRP | -0.117
82 | RRIRLRPPRLPRPRPRPYAAPRP | -0.36
83 | RRIRCRPPRLPRPRPRPQPCPRP | 0.0038
84 | RRIRARPPRLPRPRPRPERWPRP | 0.956
85 | RRIRSRPPRLPRPRPRPFCKPRP | -0.449
86 | RRIRVRPPRLPRPRPRPFGHPRP | 0.13
87 | RRIRHRPPRLPRPRPRPHDFPRP | -0.0633
88 | RRIRHRPPRLPRPRPRPWTGPRP | -0.104

Row | Sequence | shrunken log2 fold change
89 | RRIRNRPPRLPRPRPRPWHEPRP | -0.454
90 | RRIRIRPPRLPRPRPRPNDYPRP | -0.312
91 | RRIRFRPPRLPRPRPRPGHGPRP | 0.148
92 | RRIRIRPPRLPRPRPRPSNKPRP | -1.01
93 | RRIRERPPRLPRPRPRPWCQPRP | -0.0135
94 | RRIRVRPPRLPRPRPRPAHMPRP | -0.103
95 | RRIRRRPPRLPRPRPRPCCVPRP | 0.415
96 | RRIRGRPPRLPRPRPRPPSWPRP | 1.24
97 | RRIRSRPPRLPRPRPRPMFQPRP | 0.0483
98 | RRIRDRPPRLPRPRPRPYHRPRP | 0.0231
99 | RRIRTRPPRLPRPRPRPRHCPRP | -0.0723
100 | RRIRCRPPRLPRPRPRPSHIPRP | -0.637
101 | RRIRTRPPRLPRPRPRPSRHPRP | -0.481
102 | RRIRVRPPRLPRPRPRPKNYPRP | -0.359
103 | RRIRRRPPRLPRPRPRPLEMPRP | 0.181
104 | RRIRCRPPRLPRPRPRPIALPRP | -0.102
105 | RRIRWRPPRLPRPRPRPFNYPRP | -0.533
106 | RRIRTRPPRLPRPRPRPPVQPRP | 0.0423
107 | RRIRDRPPRLPRPRPRPERDPRP | 0.312
108 | RRIRTRPPRLPRPRPRPNWPPRP | -0.0423
109 | RRIRWRPPRLPRPRPRPTACPRP | 0.317
